The results in this text go back to article PMC7615196, “PIM1 controls GBP1 activity to limit self-damage and to guard against pathogen infection” (Science (New York, N.Y.), 2023).

Residue numbers refer to the chain shown, from its start. Names and notes keep the numbering of the source.

For series [1], the target named is recombinant GBP1 (non-phosphorylated) (human) (UniProt P32455). Briefly: SEC; GBP1 dimerization: samples without nucleotide or incubated with 1 mM GTP or 1 mM GDP + 10 mM AlF3; free GBP1 or phosphorylated, 14-3-3σ-bound GBP1. On the technique in general: SEC sorts molecules by how far they enter the pores of the column.
The target of series [2] is 14-3-3ζ (UniProt P63104). Put plainly: co-IP of Flag-GBP1 and HA-14-3-3. The conditions noted are these: reference: wild type; sites S156.
Series [3] concerns the target 14-3-3β (UniProt P31946). Put plainly: co-IP of Flag-GBP1 and HA-14-3-3. The conditions noted are these: reference: wild type; sites S156.
For series [4], the target named is 14-3-3θ (UniProt P27348). Briefly: co-IP of Flag-GBP1 and HA-14-3-3. The following applies: reference: wild type; sites S156.
In series [5] the target is 14-3-3σ (UniProt P31947). Put plainly: co-IP of Flag-GBP1 and HA-14-3-3. The following applies: reference: wild type; sites S156.
The target of series [6] is 14-3-3η (UniProt Q04917). Briefly: co-IP of Flag-GBP1 and HA-14-3-3. The following applies: reference: wild type; sites S156.
The target of series [7] is 14-3-3ε (UniProt P62258). Briefly: co-IP of Flag-GBP1 and HA-14-3-3. The following applies: reference: wild type; sites S156.
Series [8] has as its target 14-3-3γ (UniProt P61981). Put plainly: co-IP of Flag-GBP1 and HA-14-3-3. The conditions noted are these: reference: wild type; sites S156.
The target in series [9] is endogenous GBP1 (IFNγ-treated THP-1 cells) (human (endogenous in THP-1)) (UniProt P32455). Briefly: cross-linking; GBP1 oligomerization assay: THP-1 cells (IFNγ±Dox; also ΔPIM1 or Δ14-3-3σ cells) lysed, GBP1 precipitated with CHAPS buffer, pellets cross-linked with 4 mM DSS for 30 minutes at room temperature, immunoblot. In general terms: Immunoblotting shows a protein as a band on a membrane.

The target of series [10] is phosphorylated Flag-GBP1 (GBP1pS156) purified from THP-1ΔGBP1+Tet-Flag-GBP1 WT cells (human) (UniProt P32455). Briefly: co-IP; semi-quantitative co-immunoprecipitation: purified phosphorylated Flag-GBP1 bound to Flag(M2)-agarose beads, incubated with different concentrations of purified HA-14-3-3 proteins for 1 hour at 4°C in 25 mM HEPES pH 7.3, 100 mM NaCl, 0.01% Triton X-100, 5% glycerol, 1 mM DTT; blots ….

Series [11] deals with the molecule itself. Briefly: cross-linking; GBP1 oligomerization assay: THP-1 cells (IFNγ±Dox; also ΔPIM1 or Δ14-3-3σ cells) lysed, GBP1 precipitated with CHAPS buffer, pellets cross-linked with 4 mM DSS for 30 minutes at room temperature, immunoblot.
Series [12] deals with T1, phosphorylated Flag-GBP1 (GBP1pS156) purified from THP-1ΔGBP1+Tet-Flag-GBP1 WT cells (human, UniProt P32455 1-592, phosphoserine at 156).
T1 chain: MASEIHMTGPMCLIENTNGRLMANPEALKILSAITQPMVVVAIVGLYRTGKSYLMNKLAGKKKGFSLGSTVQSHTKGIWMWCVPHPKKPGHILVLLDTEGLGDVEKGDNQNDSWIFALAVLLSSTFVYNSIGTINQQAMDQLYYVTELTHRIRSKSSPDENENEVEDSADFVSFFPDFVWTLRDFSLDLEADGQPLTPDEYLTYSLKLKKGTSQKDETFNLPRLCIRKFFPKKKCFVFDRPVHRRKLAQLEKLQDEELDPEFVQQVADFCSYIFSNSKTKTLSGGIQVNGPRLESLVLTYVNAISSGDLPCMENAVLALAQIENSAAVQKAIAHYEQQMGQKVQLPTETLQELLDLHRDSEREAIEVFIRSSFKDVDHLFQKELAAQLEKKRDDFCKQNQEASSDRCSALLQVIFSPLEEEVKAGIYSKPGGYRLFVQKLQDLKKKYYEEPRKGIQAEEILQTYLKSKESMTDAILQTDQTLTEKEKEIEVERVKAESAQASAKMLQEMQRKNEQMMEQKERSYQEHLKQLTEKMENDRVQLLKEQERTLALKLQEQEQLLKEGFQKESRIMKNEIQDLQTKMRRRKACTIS
Briefly: GBP1 phosphorylated at S156; semi-quantitative co-IP.

The target of series [13] is T2, in vitro phosphorylated recombinant GBP1 (human, UniProt P32455 1-592, phosphoserine at 156 (GBP1pS156); Ser569 and Thr590 also identified as sites phosphorylated by PIM1 in vitro).
T2 chain: T1 chain
Briefly: ITC; GBP1 phosphorylated at S156. For orientation: Isothermal titration calorimetry measures the heat released or taken up as one component is titrated into another.

In series [14] the target is T2, in vitro phosphorylated recombinant GBP1.
Series [15] deals with the molecule itself. Put plainly: cryo-EM structure; single particle cryo-EM of the SEC-purified phospho-GBP1:14-3-3σ complex; crystal structures docked as rigid bodies.

As a reminder, the stoichiometry N is a count of units in the complex or per binding partner. Turning to “recombinant GBP1 (non-phosphorylated) (from UniProt P32455 1-592) (natural protein)”, the stoichiometry N in series [1] amounted to 2. With GBP1 (from UniProt P32455) S156A, the “binding against the reference” value in series [2], in [3], in [4], in [5], in [6] and in [7] was “lost” in each case. In addition, in series [8], the “binding against the reference” value is listed as “lost”. In series [9], “endogenous GBP1 (IFNγ-treated THP-1 cells) (from UniProt P32455 1-592) (natural protein)” displayed a stoichiometry N of 2. Broadly, the Kd is the free concentration of one partner at which half of the binding sites on the other are occupied at equilibrium, for simple one-to-one binding. For “HA-14-3-3σ (from UniProt P31947 1-248) (natural protein)”, the Kd in series [10] was determined as 370 nM.

B1: GBP1^S156A (Dox-inducible, THP-1ΔGBP1+GBP1^S156A cells) (natural protein, human, UniProt P32455 1-592, looked up)
chain: T1 chain with S156A
notes: pLenti-Tet-GBP1 mutated by site-directed mutagenesis; also called phosphodeficient GBP1; source: THP-1ΔGBP1+Tet-GBP1 S156A, Dox-induced, in lysate
For B1, the “stoichiometry N” value in [11] was determined as 2.

B2: GBP1^R153A/P158A (14-3-3 binding motif mutant, Dox-inducible in THP-1ΔGBP1) (natural protein, human, UniProt P32455 1-592, looked up)
chain: T1 chain with R153A, P158A
notes: pLenti-Tet-GBP1 mutated by site-directed mutagenesis; source: THP-1ΔGBP1+Tet-GBP1 mutant, Dox-induced, in lysate
In the case of B2, the “stoichiometry N” value in series [11] stood at 2.

B3: GBP1^R151A/R153A/K155A (kinase motif mutant, Dox-inducible in THP-1ΔGBP1) (natural protein, human, UniProt P32455 1-592, looked up)
chain: T1 chain with R151A, R153A, K155A
notes: as for B2
For B3, the “stoichiometry N” value in series [11] was determined as 2.

B4: HA-14-3-3θ (natural protein)
chain: MEKTELIQKAKLAEQAERYDDMATCMKAVTEQGAELSNEERNLLSVAYKNVVGGRRSAWRVISSIEQKTDTSDKKLQLIKDYREKVESELRSICTTVLELLDKYLIANATNPESKVFYLKMKGDYFRYLAEVACGDDRKQTIDNSQGAYQEAFDISKKEMQPTHPIRLGLALNFSVFYYEILNNPELACTLAKTAFDEAIAELDTLNEDSYKDSTLIMQLLRDNLTLWTSDSAGEECDAAEGAEN
In [12], B4 yielded a Kd of 1730 nM.

B5: HA-14-3-3ζ (natural protein)
chain: MDKNELVQKAKLAEQAERYDDMAACMKSVTEQGAELSNEERNLLSVAYKNVVGARRSSWRVVSSIEQKTEGAEKKQQMAREYREKIETELRDICNDVLSLLEKFLIPNASQAESKVFYLKMKGDYYRYLAEVAAGDDKKGIVDQSQQAYQEAFEISKKEMQPTHPIRLGLALNFSVFYYEILNSPEKACSLAKTAFDEAIAELDTLSEESYKDSTLIMQLLRDNLTLWTSDTQGDEAEAGEGGEN
B5 yielded a Kd in series [12] of 1120 nM.

B6: HA-14-3-3η (natural protein)
chain: MGDREQLLQRARLAEQAERYDDMASAMKAVTELNEPLSNEDRNLLSVAYKNVVGARRSSWRVISSIEQKTMADGNEKKLEKVKAYREKIEKELETVCNDVLSLLDKFLIKNCNDFQYESKVFYLKMKGDYYRYLAEVASGEKKNSVVEASEAAYKEAFEISKEQMQPTHPIRLGLALNFSVFYYEIQNAPEQACLLAKQAFDDAIAELDTLNEDSYKDSTLIMQLLRDNLTLWTSDQQDEEAGEGN
Regarding B6, the dissociation constant (Kd) in series [12] turned out to be 6430 nM.

B7: HA-14-3-3ε (natural protein)
chain: MDDREDLVYQAKLAEQAERYDEMVESMKKVAGMDVELTVEERNLLSVAYKNVIGARRASWRIISSIEQKEENKGGEDKLKMIREYRQMVETELKLICCDILDVLDKHLIPAANTGESKVFYYKMKGDYHRYLAEFATGNDRKEAAENSLVAYKAASDIAMTELPPTHPIRLGLALNFSVFYYEILNSPDRACRLAKAAFDDAIAELDTLSEESYKDSTLIMQLLRDNLTLWTSDMQGDGEEQNKEALQDVEDENQ
In series [12], B7 showed a Kd of 1860 nM.

B8: HA-14-3-3β (natural protein)
chain: MTMDKSELVQKAKLAEQAERYDDMAAAMKAVTEQGHELSNEERNLLSVAYKNVVGARRSSWRVISSIEQKTERNEKKQQMGKEYREKIEAELQDICNDVLELLDKYLIPNATQPESKVFYLKMKGDYFRYLSEVASGDNKQTTVSNSQQAYQEAFEISKKEMQPTHPIRLGLALNFSVFYYEILNSPEKACSLAKTAFDEAIAELDTLNEESYKDSTLIMQLLRDNLTLWTSENQGDEGDAGEGEN
The molecule B8 had a Kd in series [12] of 2310 nM.

B9: recombinant 14-3-3σ (natural protein, human, UniProt P31947 1-248, looked up)
chain: MERASLIQKAKLAEQAERYEDMAAFMKGAVEKGEELSCEERNLLSVAYKNVVGGQRAAWRVLSSIEQKSNEEGSEEKGPEVREYREKVETELQGVCDTVLGLLDSHLIKEAGDAESRVFYLKMKGDYYRYLAEVATGDDKKRIIDSARSAYQEAMDISKKEMPPTNPIRLGLALNFSVFHYEIANSPEEAISLAKTTFDEAMADLHTLSEDSYKDSTLIMQLLRDNLTLWTADNAGEEGGEAPQEPQS
notes: 14-3-3σ (stratifin), ORF from cDNA of IFNγ-primed THP-1 WT cells via pLenti-Tet-14-3-3σ into pET15d-6xHis-3C; homodimer in the cryo-EM map; also called SFN; YWHAS; source: E. coli BL21, purified (Ni-NTA, 3C cleavage, reverse Ni-IMAC, SEC); not shown: His6, N-terminal, cleaved
In the case of B9, the Kd in series [13] came to 400 nM. Besides, the GTPase activity assay (rate of GTP hydrolysis, free phosphate by Malachite Green), 2 μM purified GBP1:14-3-3σ complex compared to free GBP1 in series [14] is over 8 fold. Besides, the “stoichiometry N” value in [15] was 2.

B10: HA-14-3-3γ (natural protein)
chain: MVDREQLVQKARLAEQAERYDDMAAAMKNVTELNEPLSNEERNLLSVAYKNVVGARRSSWRVISSIEQKTSADGNEKKIEMVRAYREKIEKELEAVCQDVLSLLDNYLIKNCSETQYESKVFYLKMKGDYYRYLAEVATGEKRATVVESSEKAYSEAHEISKEHMQPTHPIRLGLALNYSVFYYEIQNAPEQACHLAKTAFDDAIAELDTLNEDSYKDSTLIMQLLRDNLTLWTSDQQDDDGGEGNN
On to B10, for which the Kd in series [12] was 4200 nM.
